In US20250243286A1 (SIXPEAKS BIO, published 2025):
Read-outs that look alike come from different tables or passages of the source.

T1: human ActRIIB (human, UniProt Q13705 19-137, limits assumed)
T1 construct: antigen in MSD-SET; also called ACVR2B; ActR2B
T1 sequence: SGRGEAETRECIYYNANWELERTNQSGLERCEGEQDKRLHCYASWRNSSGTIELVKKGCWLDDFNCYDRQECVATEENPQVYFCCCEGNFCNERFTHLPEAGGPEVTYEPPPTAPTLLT


What was measured:
human ActRIIA [1] = target: T2, human ActRIIA (human, UniProt P27037 20-135, limits assumed); assay: MSD-SET
T2 construct: antigen in MSD-SET; also called ACVR2A; ActR2A
T2 sequence (P27037 20-135 limits assumed): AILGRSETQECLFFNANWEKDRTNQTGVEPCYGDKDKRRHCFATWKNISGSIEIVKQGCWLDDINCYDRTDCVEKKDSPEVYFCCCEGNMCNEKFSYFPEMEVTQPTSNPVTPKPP

human ActRIIB [2] = target: T1, human ActRIIB; assay: MSD-SET
human ActRIIA [3] = target: T2, human ActRIIA; assay: MSD-SET; remark: listed apart in the source
human ActRIIB [4] = target: T1, human ActRIIB; assay: MSD-SET; remark: listed apart in the source
human ActRIIA [5] = target: T2, human ActRIIA; assay: MSD-SET, preliminary
human ActRIIB [6] = target: T1, human ActRIIB; assay: MSD-SET, preliminary
[7] = target: T3, ActRIIA and ActRIIB (on TGFB/SMAD SBE Reporter HEK293 cells) (human); assay: cell-based or functional assay
human ActRIIA [8] = target: T2, human ActRIIA; assay: MSD-SET; remark: listed apart in the source
human ActRIIB [9] = target: T1, human ActRIIB; assay: MSD-SET; remark: listed apart in the source
human ActRIIA [10] = target: T2, human ActRIIA; assay: MSD-SET; remark: listed apart in the source
human ActRIIB [11] = target: T1, human ActRIIB; assay: MSD-SET; remark: listed apart in the source
[12] = target: T3, ActRIIA and ActRIIB (on TGFB/SMAD SBE …); assay: cell-based or functional assay; remark: listed apart in the source
human ActRIIA [13] = target: T2, human ActRIIA; assay: MSD-SET; remark: listed apart in the source
human ActRIIB [14] = target: T1, human ActRIIB; assay: MSD-SET; remark: listed apart in the source
[15] = target: T3, ActRIIA and ActRIIB (on TGFB/SMAD SBE …); assay: cell-based or functional assay; remark: listed apart in the source
human ActRIIA [16] = target: T2, human ActRIIA; assay: MSD-SET, Fab KD over IgG KD
human ActRIIB [17] = target: T1, human ActRIIB; assay: MSD-SET, Fab KD over IgG KD

Binder | Kd (human ActRIIA [3]) [nM] | Kd (human ActRIIB [4]) [nM] | Kd (human ActRIIB [6]) [nM] | IC50, Myostatin SMAD RGA [7] [nM] | IC90, Activin SMAD RGA [7] [nM] | IC90, Myostatin SMAD RGA [7] [nM] | Kd (human ActRIIA [10]) [nM] | Kd (human ActRIIB [11]) [nM] | IC50, Activin SMAD RGA [12] [nM] | IC50, Myostatin SMAD RGA [12] [nM] | Kd (human ActRIIB [14]) [nM] | IC50 fold difference to bimagrumab, Myostatin SMAD RGA [7] [fold] | IC90 fold difference to bimagrumab, Activin SMAD RGA [7] [fold] | IC90 fold difference to bimagrumab, Myostatin SMAD RGA [7] [fold] | IC95, Activin SMAD RGA [7] [nM] | IC95, Myostatin SMAD RGA [7] [nM] | IC95 fold difference to bimagrumab, Activin SMAD RGA [7] [fold] | IC95 fold difference to bimagrumab, Myostatin SMAD RGA [7] [fold] | IC99, Activin SMAD RGA [7] [nM] | IC99, Myostatin SMAD RGA [7] [nM] | also measured
Antibody Bebballesgmias (antibody, V domains shown, full-length IgG) VH: QVQLVQSGAEVKKPGSSVKVSCKASGYKFTSSYINWVRQAPGQGLEWMGTINPVSGSTSYAQKFQGRVTITADTSTSTAYMELSSLRSEDTAVYYCARGGWFDYWGQGTLVTVSS VL: QSALTQPRSVSGSPGQSVTISCTGTSSDVGSYNYVNWYQQHPGKAPKLMIYGVSKRPRGVPDRFSGSKSGNTASLTISGLQAEDEADYYCGTFAGGSYYGVFGGGTKLTVL | 0.142 | 0.0167 | 0.0167 | 0.181 | 2.88 | 1.94 | – | – | – | – | – | – | – | – | – | – | – | – | – | – | Kd (human ActRIIA [1]): 0.067 nM; Kd (human ActRIIB [2]): 0.0013 nM; Kd (human ActRIIA [5]): 0.142 nM; IC50, Activin SMAD RGA [7]: 0.171 nM; IC50, myostatin inhibition (SMAD RGA) [7]: 0.171 nM
Antibody Ochsamaulsalat (antibody, V domains shown, full-length IgG) VH: QVQLVQSGAEVKKPGASVKVSCKASGYTFTSSYINWVRQAPGQGLEWMGTINAVSGSTSYAQKFQGRVTMTRDTSISTAYMELSRLRSDDTAVYYCARGGWFDYWGQGTLVTVSS VL: QSALTQPASVSGSPGQSITISCTGTSSDVGSRNYVNWYQQHPGKAPKLMIYGVSKRESGVSNRFSGSKSGNTASLTISGLQAEDEADYYCGTFAGGDYYGVFGGGTKLTVL | – | – | – | 0.653 | 2.51 | 5.59 | 0.02 | 0.01 | 0.43 | 0.55 | – | – | – | – | – | – | – | – | – | – | Kd (human ActRIIA [8]): 0.02 nM; Kd (human ActRIIB [9]): 0.01 nM; Kd (human ActRIIA [1]): 0.0232 nM; Kd (human ActRIIB [2]): 0.0082 nM
Antibody Schwardamaga (antibody, V domains shown, full-length IgG) VH: QVQLVQSGAEVKKPGSSVKVSCKASGYTFTSSYINWVRQAPGQGLEWMGTINAVSGSTSYAQKFQGRVTITADTSTSTAYMELSSLRSEDTAVYYCARGGWFDYWGQGTLVTVSS VL: QSALTQPRSVSGSPGQSVTISCTGTSSDVGSANYVNWYQQHPGKAPKPMIYGVSRRPSGVPDRFSGSKSGNTASLTISGLQAEDEADYYCGTFAGGKYYGVFGGGTKLTVL | 0.0404 | 0.0129 | 0.0293 | 0.75 | 5.34 | 14.7 | – | – | – | – | 0.0129 | 0.7 | 1.8 | 0.9 | 14.2 | 41.5 | 2.7 | 1.3 | 124 | 425 | Kd (human ActRIIA [13]): 0.0404 nM; IC99 fold difference to bimagrumab, Activin SMAD RGA [7]: 6.7 fold; IC99 fold difference to bimagrumab, Myostatin SMAD RGA [7]: 6.3 fold; IC50, Activin SMAD RGA [15]: 0.46 nM; IC50 fold difference to bimagrumab, Activin SMAD RGA [15]: 0.7 fold; IC90, Activin SMAD RGA [15]: 5.09 nM; IC90 fold difference to bimagrumab, Activin SMAD RGA [15]: 0.8 fold; IC95, Activin SMAD RGA [15]: 12.8 nM; IC95 fold difference to bimagrumab, Activin SMAD RGA [15]: 39.3 fold; IC99, Activin SMAD RGA [15]: 99 nM; IC99 fold difference to bimagrumab, Activin SMAD RGA [15]: 305 fold
Antibody Soidawürstle (antibody, V domains shown, full-length IgG; also called Soidawüsrstel) VH: QVQLVQSGAEVRKPGSSVKVSCKASGYTFTSSYINWVRQAPGQGLEWMGTINPVSGSTSYAQKFQGRVTITADTSTSTAYMELSSLRSEDTAVYYCARGGWFDYWGQGTLVTVSS VL: QSALTQPRSVSGSPGQSVTISCTGTSSDVGSYNRVNWYQQHPGKAPKLMIYGVSKRESGVPDRFSGSKSGNTASLTISGLQAEDEADYYCGTFAGGRYYGVFGGGTKLTVL | 0.0342 | 0.0055 | 0.0508 | 0.13 | 2.16 | 6.63 | – | – | – | – | 0.0055 | 4.3 | 4.3 | 2 | 8.86 | 35 | 4.3 | 1.6 | 200 | 2000 | Kd (human ActRIIA [13]): 0.0342 nM; Kd (human ActRIIA [5]): 0.0345 nM; IC99 fold difference to bimagrumab, Activin SMAD RGA [7]: 4.1 fold; IC99 fold difference to bimagrumab, Myostatin SMAD RGA [7]: 1.3 fold; IC50, Activin SMAD RGA [15]: 0.16 nM; IC50 fold difference to bimagrumab, Activin SMAD RGA [15]: 2 fold; IC90, Activin SMAD RGA [15]: 1.81 nM; IC90 fold difference to bimagrumab, Activin SMAD RGA [15]: 0.3 fold; IC95, Activin SMAD RGA [15]: 4.84 nM; IC95 fold difference to bimagrumab, Activin SMAD RGA [15]: 14.9 fold; IC99, Activin SMAD RGA [15]: 19.3 nM; IC99 fold difference to bimagrumab, Activin SMAD RGA [15]: 59.5 fold
Antibody Ofaschlupfer (antibody, V domains shown, full-length IgG) VH: QVQLVQSGAEVKKPGSSVKVSCKASGYTFTSSYINWVRQAPGQGLEWMGTINAVSGSTSYAQKFQGRVTITADTSTSTAYMELSSLRSEDTAVYYCARGGWFDYWGQGTLVTVSS VL: QSALTQPRSVSGSPGQSVTISCTGTSSDVGSKNYVNWYQQHPGKAPKLMIYGVSKRESGVPDRFSGSKSGNTASLTISGLQAEDEADYYCGTFAGGKYYGVFGGGTKLTVL | – | 0.0029 | 0.0277 | 0.7 | 2.27 | 14.4 | – | – | – | – | 0.0029 | 0.8 | 4.1 | 0.9 | 4.97 | 55.2 | 7.6 | 1 | 28.1 | 1240 | IC99 fold difference to bimagrumab, Activin SMAD RGA [7]: 29.6 fold; IC99 fold difference to bimagrumab, Myostatin SMAD RGA [7]: 2.2 fold; IC50, Activin SMAD RGA [15]: 0.32 nM; IC50 fold difference to bimagrumab, Activin SMAD RGA [15]: 1 fold; IC90, Activin SMAD RGA [15]: 3.02 nM; IC90 fold difference to bimagrumab, Activin SMAD RGA [15]: 2.1 fold; IC95, Activin SMAD RGA [15]: 7.07 nM; IC95 fold difference to bimagrumab, Activin SMAD RGA [15]: 21.8 fold; IC99, Activin SMAD RGA [15]: 47.8 nM; IC99 fold difference to bimagrumab, Activin SMAD RGA [15]: 147 fold
Biiramooscht Fab (Fab, V domains shown, Fab) VH: QVQLVQSGAEVKKPGASVKVSCKASGYTFTSSYINWVRQAPGQGLEWMGTINPVSGSTSYAQKFQGRVTMTRDTSISTAYMELSRLRSDDTAVYYCARGGWFDYWGQGTLVTVSS VL: QSALTQPASVSGSPGQSITISCTGTSSDVGSYNYVNWYQQHPGKAPKLMIYGVSKRESGVSNRFSGSKSGNTASLTISGLQAEDEADYYCGTFAGGAYYGVFGGGTKLTVL | – | – | – | – | – | – | 0.145 | 0.021 | 1.58 | 2.09 | – | – | – | – | – | – | – | – | – | – | IC50 fold difference (Fab:IgG), Activin SMAD RGA [12]: 7.4 fold; IC50 fold difference (Fab:IgG), Myostatin SMAD RGA [12]: 7.9 fold; Fold difference (Fab:IgG) (human ActRIIA [16]): 5.2 fold; Fold difference (Fab:IgG) (human ActRIIB [17]): 4.4 fold
Rippla Fab (Fab, V domains shown, Fab) VH: QVQLVQSGAEVRKPGASVKVSCKASGYTFTSSYINWVRQAPGQGLEWMGTINPVSGSTSYAQKFQGRVTMTRDTSISTAYMELSRLRSDDTAVYYCARGGWFDYWGQGTLVTVSS VL: QSALTQPASVSGSPGQSITISCTGTSSDVGSYNRVNWYQQHPGKAPKLMIYGVSKRESGVSNRFSGSKSGNTASLTISGLQAEDEADYYCGTFAGGRYYGVFGGGTKLTVL | – | – | – | – | – | – | 0.157 | 0.006 | 0.4 | 0.78 | – | – | – | – | – | – | – | – | – | – | IC50 fold difference (Fab:IgG), Activin SMAD RGA [12]: 4.6 fold; IC50 fold difference (Fab:IgG), Myostatin SMAD RGA [12]: 5.1 fold; Fold difference (Fab:IgG) (human ActRIIA [16]): 3.8 fold; Fold difference (Fab:IgG) (human ActRIIB [17]): 1.1 fold
Fasnetsküchla Fab (Fab, V domains shown, Fab) VH: QVQLVQSGAEVKKPGASVKVSCKASGYTFTSSYINWVRQAPGQGLEWMGTINAVSGSTSYAQKFQGRVTMTRDTSISTAYMELSRLRSDDTAVYYCARGGWFDYWGQGTLVTVSS VL: QSALTQPASVSGSPGQSITISCTGTSSDVGSANYVNWYQQHPGKAPKPMIYGVSRRPSGVSNRFSGSKSGNTASLTISGLQAEDEADYYCGTFAGGKYYGVFGGGTKLTVL | – | – | – | – | – | – | 0.114 | 0.026 | 1.21 | 2.32 | – | – | – | – | – | – | – | – | – | – | IC50 fold difference (Fab:IgG), Activin SMAD RGA [12]: 2.8 fold; IC50 fold difference (Fab:IgG), Myostatin SMAD RGA [12]: 4.8 fold; Fold difference (Fab:IgG) (human ActRIIA [16]): 3.9 fold; Fold difference (Fab:IgG) (human ActRIIB [17]): 3.1 fold
